# Laboratory results: PMC6929985, “Allosteric regulation of protein 14-3-3ζ scaffold by small-molecule editing modulates histone H3 post-translational modifications” (Theranostics, 2020)
# Positions count from the first letter of the chain named. Numbers in names are those of the source.
# T1: recombinant human 14-3-3ζ protein (human), P63104
# T1 chain: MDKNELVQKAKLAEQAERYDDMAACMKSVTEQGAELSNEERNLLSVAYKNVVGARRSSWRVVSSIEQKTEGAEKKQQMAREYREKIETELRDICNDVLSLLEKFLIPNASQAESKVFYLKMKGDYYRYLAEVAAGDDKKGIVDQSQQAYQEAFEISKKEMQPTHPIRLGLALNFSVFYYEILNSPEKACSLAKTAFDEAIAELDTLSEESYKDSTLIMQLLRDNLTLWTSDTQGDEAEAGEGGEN
# B1: recombinant human 14-3-3ζ protein, P63104 1-245 (natural protein)
# chain: T1 chain
# B2: 14-3-3ζ mutant (K158R) (natural protein, UniProt P63104 1-245, looked up)
# chain: T1 chain with K158R
# notes: 14-3-3ζ with K158R
# Tests used:
# [1] = biological target: T1, recombinant human 14-3-3ζ protein …; experiment: AUC; 'sedimentation equilibration analysis'; 25 μM 14-3-3ζ incubated with or without PTA at 25 °C for 8 h, centrifuged at 20 °C and 60000 rpm for 7 h; c(s) by SEDPHAT; monomer to dimer; conditions: remark: other sources report otherwise
# [2] = biological target: the molecule itself; experiment: cross-linking; 0.025 mM 14-3-3ζ incubated with or without PTA at 25 °C for 8 h, cross-linked with 1 mM disuccinimidyl suberate for 30 min (20 mM HEPES, 100 mM KCl, 1 mM dithiothreitol, pH 8.0), quenched with 50 mM Tris-HCl; SDS-PAGE with silver staining, and LC-MS
Binder,percent dimer (with PTA) [1],percent dimer (without PTA) [1],stoichiometry N [1],binding result [2]
B1,77.5%,69.1%,2,
B2,,,,binds
